Measured values: PMC9044722

Columns and labels:
[1] = target: His-CRM1 recombinant protein (UniProt O14980); assay: SPR; without TLNC1; conditions: natural protein; chains chain; remark: other sources report otherwise
[2] = target: His-CRM1 recombinant protein (UniProt O14980); assay: SPR; with TLNC1 (lncRNA); conditions: natural protein; chains chain; remark: other sources report otherwise

UniProt O14980, sequence (O14980 whole entry): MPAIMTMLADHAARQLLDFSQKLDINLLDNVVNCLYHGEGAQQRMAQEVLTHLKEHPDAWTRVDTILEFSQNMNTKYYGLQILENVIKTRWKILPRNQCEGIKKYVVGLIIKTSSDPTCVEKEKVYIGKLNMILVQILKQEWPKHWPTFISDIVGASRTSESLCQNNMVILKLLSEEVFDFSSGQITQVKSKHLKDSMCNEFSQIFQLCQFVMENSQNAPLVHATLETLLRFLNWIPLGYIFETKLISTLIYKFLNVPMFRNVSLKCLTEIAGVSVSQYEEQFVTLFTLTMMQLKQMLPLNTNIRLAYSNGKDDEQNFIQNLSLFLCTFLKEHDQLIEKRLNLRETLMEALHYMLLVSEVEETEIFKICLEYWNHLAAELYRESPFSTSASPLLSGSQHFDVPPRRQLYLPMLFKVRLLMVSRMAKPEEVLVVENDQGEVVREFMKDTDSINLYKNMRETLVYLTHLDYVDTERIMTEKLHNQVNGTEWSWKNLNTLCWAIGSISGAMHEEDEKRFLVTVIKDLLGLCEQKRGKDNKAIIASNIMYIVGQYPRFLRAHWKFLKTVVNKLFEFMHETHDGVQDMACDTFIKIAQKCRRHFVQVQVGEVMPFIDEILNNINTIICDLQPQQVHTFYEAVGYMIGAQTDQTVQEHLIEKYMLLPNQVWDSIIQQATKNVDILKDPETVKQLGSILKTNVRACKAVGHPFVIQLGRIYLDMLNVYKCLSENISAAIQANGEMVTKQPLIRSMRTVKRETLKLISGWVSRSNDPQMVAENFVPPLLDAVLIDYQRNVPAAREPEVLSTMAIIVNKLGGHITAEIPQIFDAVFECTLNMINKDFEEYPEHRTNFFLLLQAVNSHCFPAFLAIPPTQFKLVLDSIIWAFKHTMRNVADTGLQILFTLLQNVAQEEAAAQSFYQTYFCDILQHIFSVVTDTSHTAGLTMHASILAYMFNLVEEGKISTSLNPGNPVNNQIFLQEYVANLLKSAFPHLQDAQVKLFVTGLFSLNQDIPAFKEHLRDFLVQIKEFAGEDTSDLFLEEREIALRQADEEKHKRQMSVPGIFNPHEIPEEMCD

Substance: His-TPR recombinant protein, P12270 1-2363
- Kd [1]: 0.181 µM
- Kd [2]: 0.0316 µM
